Tested on: Saccharomyces cerevisiae
Assay: transcriptional activation domain activity (GFP:mCherry ratio, weighted mean of sorted bins, harmonized to initial dataset scale) (arbitrary fluorescence ratio units); higher = stronger transcriptional activation
Conditions: beta-estradiol 1 µM; induction time 4 h
How it was run: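 For this assay, yeast diploids with a GFP reporter carried barcoded protein tiles at URA3, each fused to an estradiol-inducible synthetic transcription factor. Induction was a 1:5 dilution into SC with 1 uM beta-estradiol for 4 hours at 30 °C, followed by sorting into 8 bins by GFP:mCherry ratio and barcode sequencing. Tiles under 50 reads were dropped, and activation activity was calculated as the read-weighted mean of bin median fluorescence, averaged across barcodes and linearly mapped onto the initial dataset scale.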

MFSCLLFLAYLPAISLIPCDCFWVFFFFFFLGCVKTRVLYLFFFFLCCSWFFY
transcriptional activation domain activity: 47400

MFSFSFPLFLSPLPISLFFLPFALSYSLLSSHLMADICLSSTRWLSSIFFSFF
transcriptional activation domain activity: 36100

MFSFYMPTPPPFFPFPLVLFFFFFAVHRFHKISTFSTPFFFWIHFIVVLLFSF
transcriptional activation domain activity: 58600

MFSHFNSSDLTSTFFFFMPVLGFILCPFFLLESMVCALVGWPCFLLSYCLPCL
transcriptional activation domain activity: 68900

MFSWLYLSYFQPLWRAFISLFIFLRTLHQSSPSIFFISIILLFICFPLAMFAV
transcriptional activation domain activity: 19200

MFSYFVFLLTIVTFFHLIISFCFVFRCHYIVLLLLLQNVFIFCLFAHHCYIHV
transcriptional activation domain activity: 31400

MFTFNASSTINITLSILCYFIFLISVLLIRLYLNNSFMLFSLFFFFYFIYVIL
transcriptional activation domain activity: 61200

MFTGTLLVVFMHYGWSFFLNCCLGCLVISFCFWYVKLWLLIGRCILVLCIVAR
transcriptional activation domain activity: 69000

MFTGTLWLAFFLDCCLWWYMMFLCFWYEACLHVLLLGFHVYCLLWCMILSLSL
transcriptional activation domain activity: 58200

MFTLPSYSLFLSVHSFLIYPLPSCSFFFRISSPSIFTLSSCLSFPPVCPSLLF
transcriptional activation domain activity: 71700

MFTRLLRYLHCSHFCFAIATRFRGWIGLFSPLYVSCFSQPFRFRYLGCLLFLF
transcriptional activation domain activity: 52800

MFTRYLLLLLFAPLIYILGFFAASLSTHQPDYFYTWTRDSALVAQTNDTLLHD
transcriptional activation domain activity: 30900

MFTWNRMKVLTVHAPCRTGGLARLFYNFCIKHPAMNIAWWIDEILFPLYHLAR
transcriptional activation domain activity: 53100

MFVCTSQSFIRSMGLYGFYLTGLMMTLLVVVVSLTFIQYPTIVILTLFHCLIS
transcriptional activation domain activity: 44800

MFVFHMFVFYFVCLFFICLSFILYALFFMSYFYFLLVYFDICFLFLYLFLIFI
transcriptional activation domain activity: 15300

MFVGGWVMCLLFSKYSIYHLLAICALLFLLEYAFFFLLGIIHLLLLPTFFPFF
transcriptional activation domain activity: 37800

MFVHWAAVFCLFFFCLAIIHPYLPVAFFFCSIYYKPFFLRLPRFLFGFWFFFS
transcriptional activation domain activity: 47700

MFVLYTSGWESLHFFFPSPLVSFVLCWVLTRSLYRFLEVWVAYSVCLLLFLHV
transcriptional activation domain activity: 38600

MFVNLFFSLLTPICTLCFFCNPLSLPLPFFPSHLFPLFSILPLLFFFFFLCCY
transcriptional activation domain activity: 46200

MFVVLAMLLVILVVIFIFVIFVLIVLIFVILVMLLMLFFILIVIIAVIVLFFF
transcriptional activation domain activity: 16700

MFWIFYELFLDGQDIHRFSLLLVFFLFFPFASYTYSLLLLILYSVSPYGFLTS
transcriptional activation domain activity: 38000

MFWLSVSCYTYKIIRFYYADCGLVGVLKDQVQQCWIHLSYDLVYQYLPNLLNW
transcriptional activation domain activity: 69400

MFWLTLLPSPCFTFFALCYKFFSFLVSIEFFKSCFLPLPTVSPNLLSSLALLL
transcriptional activation domain activity: 63800

MFYFLLLYQSIVFLPYIFFSQFLIWVWCGLGREPGWHLEHGVYRYRWVRILSI
transcriptional activation domain activity: 39300

MFYGFGSLSYGKGVTEFFFFSFFFFVASFISCFLFNFFSSAQFCCLFFHFVLI
transcriptional activation domain activity: 58300

MFYKLLIIYCFLFFRIYFLFHFFSYIYFFFFLFSISNFVISLPSNLFSHLLFF
transcriptional activation domain activity: 47000

MFYNAQFVDCGPSALVMVLVLLAPYLPNPLQLRRAFTTRPPTVLFAVLGILET
transcriptional activation domain activity: 61600

MFYNFFFFIIIYLCFFARMFLVVSRIVMLLAFLYSCLIPLLCGLVFFCIRFKS
transcriptional activation domain activity: 67300

MFYNFLFSLFSLFHMLLLHQSLVSLSYPFFLPGNFPLSVTIFIIAPLSLFWFI
transcriptional activation domain activity: 48900

MFYYIYLFSFFFIIVLPLPLSLCTFLHPLLLDCNFTLVAFFFCLLLFYVCHFF
transcriptional activation domain activity: 28800

MFYYYFSPHFYCFMLPLYIFLFLISLFFIYPSKFYFLLIVMGVGFFSLHLCLP
transcriptional activation domain activity: 51500

MGARYWILECGDWLMAKAVPNSLPIVSFLFLLFFPWPFFVFILYLTLIALYSS
transcriptional activation domain activity: 42400

MGASLRVQIWVCIRLELCCSWIWFLASFGILFFFFCFCPLRTSLHSFPLPLYI
transcriptional activation domain activity: 47800

MGASLVVFLLFFHLLFKNGLDLLIFPFSFFYSCTIFLSFLSFLYFSFCTHVFF
transcriptional activation domain activity: 59800

MGCDVVGCDVVGFLFFLFFFILFLGLLVCWLAGWHVCWVFWFLVFVLGGLGGL
transcriptional activation domain activity: 48200

MGCFFCYCSIVLFRSSLYIISFFLLFFFLCFLFFYHIWVGVLFPSIFPLFYIR
transcriptional activation domain activity: 65400

MGCFFSFLFFFLFLFLFRSTVQSKVAFSLSLFFSLFKYLFFCCLVLGYFYLVL
transcriptional activation domain activity: 70500

MGCICVILARCYCQTLNHFLTVLLLFRSVIFVLFLLFHFFVFVYVLFFFSFII
transcriptional activation domain activity: 42000

MGCILIFIFTFPYTPSFPFPFWFLFFVFLSFSFSFQKFLVFSFLSFVWVTVGR
transcriptional activation domain activity: 51700

MGCILIFSFFSFPTSIKKFLLLSFPFLSFPFPSLLFYLGFFSFLLYILQKFLV
transcriptional activation domain activity: 58100

MGCKLIILFSSAMLFLFFSVLFLLLPLFFLSPTTCFLSFWLRLWLLLMVHWGR
transcriptional activation domain activity: 47600

MGCLHFSLFVAFWVFIAFPPSVSYHLALYLLLLLLFILFLLMCGLLRAFGLPV
transcriptional activation domain activity: 36700

MGCVRHEKVIDITLKLFYKKTGGRYLKSEYNLFAVLVYLCLYRLPTDLPFATL
transcriptional activation domain activity: 53200

MGDCIKAHVFLLTFFYLYIHTHIFLFLFFIFLPFLLFSASSIYILFSFLFFPA
transcriptional activation domain activity: 32300

MGDCIKVHVSFHCRFLVFIYTHTFFLFLFYSSSIVFCFIYIYIFPFISFFWGL
transcriptional activation domain activity: 36000

MGDIKKISCIFFSFIFGLVLFFFVIIITIICILWIWAWDFWACFGSGLGLLVC
transcriptional activation domain activity: 47100

MGEEDAKVGAGPALQVIVLGSGGGPQENNVTALLVRSVNSNWARGSMLALDAG
transcriptional activation domain activity: 36500

MGFASFRKESFCRIGTKELMCARMCLLCPLARSLIFMVLRVVLLLSTLLLVFL
transcriptional activation domain activity: 61900

MGFCFYVAGCMSISLILLFSFCLLLPPIFTGYQILWLLWIILPILSMSMLFTP
transcriptional activation domain activity: 43400

MGFCSLYGSIFLFLFLVFFLLFFSSSVGNGASFFFFFPSILFWYSLYPLFTSF
transcriptional activation domain activity: 35900

MGFDQALGLKLSPSSSGLLSTNESNAIEQFLDNLISQDMMSSNASMNSESHLH
transcriptional activation domain activity: 76500

MGFEVIFFFLLLGFFIQLLFILLIILLFLLFLVFLLFCYFVILFRLCACMMLY
transcriptional activation domain activity: 47900

MGFFFVFYLLLSHCCFSLWVRGFGFFLSHPVFLFYILGGFCLVCFFPFFFPIN
transcriptional activation domain activity: 48900

MGFFILFYFLFSLWVCGFGFFSRLSVLYLGGFVLFLINHLSLFLYIIFFFFMF
transcriptional activation domain activity: 38800

MGFKDFPFVDFAVFFFFFFSPFFSSMFILSFIYLFWFDLGIGLVGVLLFFFCH
transcriptional activation domain activity: 47500

MGFKLLLLLPYCTPRLIFKKLLLWLRFFFFLHFLFLPRRTLKNLAPCIFFLLY
transcriptional activation domain activity: 40900

MGFKTSMGWICLSQVSFFDCNLLYCVVFFIFSSKSLATSPFLSLVLLFSLYPL
transcriptional activation domain activity: 29200

MGFLFLLCVLVVWVFFRAWFFCFLFFLFLFLVLLFRYLFIYFLWSWYGGGSVG
transcriptional activation domain activity: 48000

MGFLFLLCVLVVWVFFRAWFFRFLFSLVFLFWYFFIYFLWPWYGGVGRGLHSC
transcriptional activation domain activity: 36100

MGFLLLLLILVFFFVLYLFYSFLFFFSFHWACCILYDMWEKERVELYLLLLLL
transcriptional activation domain activity: 42800

MGFLTVHSCVFCFVVWVFFFPFFFLRDWFFSHSIFFLSLFFLVFFYIHLFLLG
transcriptional activation domain activity: 43700

MGFSIDRAIELIWNLLYFFFLSSFLHIFLGLSWDMIICWNYFLSLFILLVFSS
transcriptional activation domain activity: 62600

MGGAGDKVLICNCSSTDSFLRMFLLILVFFLIILLVCMDWSLRFLMMFVFLLV
transcriptional activation domain activity: 19800

MGGCICLRWSCVNVFFSFVYSFGLACCFTSWEYGGVYLGEGGCFLFYLSFFFL
transcriptional activation domain activity: 50500

MGGFFLFFFFFSFVDSFGVVYDMDMRSGGVFFFLPFLSTLFFLLLLGSVLFSC
transcriptional activation domain activity: 71600

MGGFVYAYCSAQSLTLLPWLLFFDYLFFSFLCILNYISFLFFYFLGFEVGWVI
transcriptional activation domain activity: 71200

MGGGCLYIILFLLRTTLGVMWVFFCLLFYLFLFWFSKSLIFFSLFLVLIPSYF
transcriptional activation domain activity: 36500

MGGGGGACSCSIAYIHGFLSSLFFLLFATTFFHYSFCLLLLWMLIFFWLFAFV
transcriptional activation domain activity: < 6570

MGGGVWEPVLDVWLFSFFFSLYTSFFIGFGSLSFFPSYLVCFFFISFPPHFLL
transcriptional activation domain activity: 53400

MGGGVYVCRSGAVYLFWVLLFYGLMFLTVDVITYLLAYLTLPMYLFFLLLVSF
transcriptional activation domain activity: 39200

MGGKASWCVFSFCLLFPLYFLLSLPPSFFIFHFYCVLALLPLPLPFPFFPSIC
transcriptional activation domain activity: 58700

MGGVFWKWKRGVWMVRFFRVFLQIFLADIGLILLVFWHYIVCLCYFLFFLVGI
transcriptional activation domain activity: 52500

MGGVVWCFYRVFLFPFLLSPIIPSLLLSSLHTFPLSLTFTFTFILCRMFYVCT
transcriptional activation domain activity: 53500

MGGVWGFLWSFFFLFPLFFFSLSKDGLDCFISFILVSFYFFSFLFCIHVFFFS
transcriptional activation domain activity: 15600

MGGYLFHLLFFSFFLFSSLLRVYYYIVDMGGVLSLLYRFFLLLVTIFVRCIIF
transcriptional activation domain activity: 57100

MGIGIHTFFYFWLLIFLFLFLFLFFSWFFFFVIVIIFFNYFIFLRAWMWIAGL
transcriptional activation domain activity: 41600

MGIIIVVCVFFFLTGFLFTLVFLLSLWSLFVFFYFINFSFPLSFALLLLIFFL
transcriptional activation domain activity: 40500

MGIIIVVCVFFLFDRFSFLSCFSSFSLELIRFFIFILLTFLSFCHSPFYLFFF
transcriptional activation domain activity: 60900

MGIRYHWLVFFCPFFSFTFASCFVLFVGMLFCFIILDYGCFSFLPLWFFFCPE
transcriptional activation domain activity: 18700

MGKGGYGEQRGGGRGGFRGGRGGGRGGFGGGGFNQGPPSEVVVVGAFVSACEG
transcriptional activation domain activity: 56800

MGKGGYGEQRGGGRGGFRGGRGGGRGGFGGGGFNQGPPSEVVVVGTFVSACEG
transcriptional activation domain activity: 58400

MGKKRCLERILFLFLYAILFHILLLLLPSFPFLYLYTFAFVFYFSLSIYLVSL
transcriptional activation domain activity: 43600

MGKRRRLLAKAQPKSGGSTSAKHHPQQGTGKAVAARGQKPQKQQGAPRNGSNG
transcriptional activation domain activity: 21900

Reference: the supplement of paper PMC12636428
